The target in assay [1] is human JAM-A expressed on the surface of transduced Lec2 or CHO cells (Lec2-JAM-A, CHO-JAM-A) (human) (UniProt Q9Y624). The assay is described as follows: FD-based AFM on Lec2-JAM-A cells, after injection of 1 mM Neu5Ac.
For assay [2] the target is unchanged. The assay is described as follows: FD-based AFM on neuraminidase-treated Lec2-JAM-A cells after injection of Neu5Ac, against before injection.
Assay [3] has the same target. The assay is described as follows: FD-based AFM on Lec2-JAM-A cells, after injection of 1 mM LNnT.
Assay [4] concerns the target His6-tagged JAM-A (Bio-Connect Life Science), immobilized on NTA-Ni2+ surfaces or biosensors. The assay is described as follows: AFM dynamic force spectroscopy, Bell-Evans fit, JAM-A model surface.
The target is the same in assay [5]. The assay is described as follows: single-virus AFM force spectroscopy, virion on tip, His6-JAM-A model surface.
In assay [6] the target is human JAM-A expressed on the surface of transduced Lec2 or CHO cells (Lec2-JAM-A, CHO-JAM-A) (human) (UniProt Q9Y624). The assay is described as follows: FD-based AFM on Lec2-JAM-A cells, before injection of 1 mM Neu5Ac.
Assay [7] addresses His6-tagged JAM-A (Bio-Connect Life Science), immobilized on NTA-Ni2+ surfaces or biosensors. The assay is described as follows: AFM force spectroscopy on JAM-A model surface after injection of 1 mM Neu5Ac or LSTa.
Assay [8] addresses human JAM-A expressed on the surface of transduced Lec2 or CHO cells (Lec2-JAM-A, CHO-JAM-A) (human) (UniProt Q9Y624). The assay is described as follows: FD-based AFM on Lec2-JAM-A cells, before injection of 1 mM LSTa.
The target is the same in assay [9]. The assay is described as follows: FD-based AFM on Lec2-JAM-A cells, before injection of 1 mM LNnT.
Assay [10] has the same target. The assay is described as follows: FD-based AFM adhesion mapping on living Lec2-JAM-A cells.
The target is the same in assay [11]. The assay is described as follows: FD-based AFM on Lec2-JAM-A cells, after injection of 1 mM LSTa.

The term koff denotes the first-order rate constant of dissociation. Read a low koff as slow dissociation.

human JAM-A expressed on the surface of transduced Lec2 or CHO cells (Lec2-JAM-A, CHO-JAM-A) (human), sequence (Q9Y624 28-299): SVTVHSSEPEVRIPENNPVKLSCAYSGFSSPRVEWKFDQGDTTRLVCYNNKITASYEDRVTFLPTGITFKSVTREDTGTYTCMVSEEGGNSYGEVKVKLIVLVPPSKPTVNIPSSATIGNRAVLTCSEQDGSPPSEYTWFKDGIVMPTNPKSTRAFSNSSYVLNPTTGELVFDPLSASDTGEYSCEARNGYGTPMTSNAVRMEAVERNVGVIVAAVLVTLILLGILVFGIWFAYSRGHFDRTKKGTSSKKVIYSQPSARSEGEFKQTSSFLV

Take “T3SA+ reovirus virion (wild-type strain type 3 Dearing, T3D), binding through its outer-capsid attachment protein sigma-1 (σ1) (from UniProt P03528 1-455)”: the binding frequency in assay [1] was found to be 4.9%; in [3], 3.9%; in assay [6] it was 3.9%; in assay [8], 3.8%; in assay [9], 3.8%; in assay [11] it was 4.8%. The increase in binding in [2] stood at 20%. In [4], this substance came in with a koff of 0.04 s⁻¹. Moreover, the xu (distance to the transition state) in [4] turned out to be 0.71 nm. In addition, the specific binding force in assay [5] was 20 to 130 pN. In [7], this substance yielded an overall binding force of under 400 pN. Also, the binding force (rupture force) in assay [10] lay within 50 to 400 pN. The density of adhesion events (binding frequency) in assay [10] is 3.5%.

Regarding “T3SA- reovirus virion (T3D derivative carrying a point mutation in sigma-1, T3D-σ1R202W) (from UniProt P03528 1-455)”, in [4], the koff turned out to be 0.05 s⁻¹ and the xu (distance to the transition state) stood at 0.48 nm. This substance gave a specific binding force in [5] of 20 to 130 pN. This substance also gave a frequency of adhesion events (binding frequency) in [10] of 4%.

The record behind these values is patent US20220111034A1, “VIRUS COMPOSITIONS” (priority 2019, published 2022).
